# According to patent publication US8440629B2, “Cyclic receptor-associated protein (RAP) peptides” (Raptor Pharmaceuticals Inc., priority 2007, dated 2013):
# T1: rhLRP1 cluster II (Homo sapiens, UniProt Q07954)
# T1 construct: rhLRP1 cluster II (aa 786-1165, C-terminal Fc, 1 μg); purchased R&D Systems; host or cells: NS0
# T1 sequence (Q07954 786-1165): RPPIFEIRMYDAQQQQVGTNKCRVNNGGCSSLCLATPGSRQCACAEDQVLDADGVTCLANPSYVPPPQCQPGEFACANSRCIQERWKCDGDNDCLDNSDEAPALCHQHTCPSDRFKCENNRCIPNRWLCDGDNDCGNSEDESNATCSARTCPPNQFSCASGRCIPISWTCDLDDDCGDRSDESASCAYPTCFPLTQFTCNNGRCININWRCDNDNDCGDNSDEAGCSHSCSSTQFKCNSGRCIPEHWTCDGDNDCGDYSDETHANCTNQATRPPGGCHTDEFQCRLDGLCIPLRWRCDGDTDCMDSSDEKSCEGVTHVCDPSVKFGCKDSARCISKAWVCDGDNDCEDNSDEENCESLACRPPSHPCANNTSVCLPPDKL
# What was measured:
# LRP2 CR89 = molecular target: T2, LRP2 CR89 (Homo sapiens, UniProt P98164); experiment: Solid phase binding assay; conditions: solid-phase assay
# T2 construct: two CR pairs from LRP2 (CR89, CR3435); made in house; host or cells: E. coli BL21(DE3) CodonPlus-RIPL, pET30(+)a
# Method: (§1) All expression constructs were sequenced to verify insert sequences and the junctions with the expression vector. Each plasmid was then used to transform BL21(DE3) CodonPlus-RIPL™ cells (Stratagene). Expression of the CR proteins was induced in logarithmic growth-phase cells grown in LB supplemented with 34 μg/mL chloramphenicol, 12.5 μg/mL tetracycline and 15 μg/mL kanamycin by addition of 2 mM IPTG, followed by reduction in incubator temperature to 32° C. and incubation for 4 hours with agitation at […]. Cells were pelleted and resuspended, at 3.5% of the initial culture volume in 10 mM Tris-HCl pH 8, 100 mM NaH2PO4, 8M Urea. Resuspended cells were then frozen in liquid nitrogen, rapidly thawed to 37° C. and sonicated for 10 seconds at an amplitude setting of 60 using a Cole-Parmer CP-130 ultrasonic processor connected to a 3 mm probe. This procedure was repeated three times to effect complete lysis of the cells. Lysates were clarified by spinning twice at 10,000×g in a Sorvall RC-5 centrifuge for 20 minutes at 15° C. Ni-NTA columns (Qiagen Superflow™, 1.5 mL packed bed) were used to purify the CR proteins. Briefly, the resin was equilibrated with two column volumes of lysis buffer. The clarified lysate was then supplemented to 20 mM with imidazole and incubated with the equilibrated Ni-NTA resin overnight at 4° C. The flow-through was discarded. Columns were washed once with one column volume of lysis buffer and then three times with one column volume of TBS pH 8 supplemented with 20 mM imidazole. CR-loaded beads were then removed from the column and CR proteins eluted by incubating at room temperature for 30 minutes with one column volume of the same buffer containing 200 mM imidazole. This step was repeated once and the eluates pooled. Eluted CR protein solutions were then supplemented to 2 M urea, 10 mM CaCl2 and 5 mM DTT. Purified, denatured CR protein solutions were transferred to 3,500 MWCO Slide-A-Lyzer™ (Pierce) cassettes and sequentially dialyzed against a 200-fold excess of 50 mM Tris-HCl pH 8.5, 10 mM CaCl2, 1 mM reduced glutathione, 0.5 mM oxidized glutathione at room temperature overnight and then against TBS supplemented with 5 mM CaCl2 at 4° C. overnight. Protein concentrations were determined by Bradford assay and purity confirmed by SDS-PAGE with Coomassie Brilliant Blue staining.
# (§2) Purified, refolded CR protein (1 μg) was bound to Nunc Maxisorp™ 96-well plates in TBS pH 8 supplemented with 5 mM CaCl2 (TBSC) overnight at 4° C. Wells were washed with TBSC and then blocked with TBSC containing 2% bovine serum albumin (BSA). RAP ligands were then incubated with the immobilized receptor at a range of concentrations for 2 hours in the above blocking buffer supplemented with 0.05% Tween-20 at room temperature. Control wells contained no added ligand. As an additional control, to determine whether the absence of calcium affected binding, 10 mM EGTA was included in the incubation medium for some samples. Wells were washed with TBSTC and bound ligands detected with polyclonal anti-RAP (BP41/42, 1:1,000, BioMarin). Excess primary antibody was removed and wells washed before incubation with the secondary antibody, HRP-conjugated goat anti rabbit IgG (Bio-Rad). After washing, TMB substrate solutions (Bio-Rad) were added to detect HRP. Color development was stopped with 1N HCl. Absorption at 450 nm was measured with a microplate spectrophotometer (Molecular Devices). Data were plotted and Kd values derived by non-linear regression with the assumption of single-site binding (GraphPad Prism).
# LRP1 CR3-5 = molecular target: T3, LRP1 CR3-5 (Homo sapiens, UniProt Q07954); experiment: Solid phase binding assay; conditions: solid-phase assay
# T3 construct: made in house; host or cells: E. coli BL21(DE3) CodonPlus-RIPL, pET30(+)a
# Method: as §1, §2
# From the large number of CR pairs with unique combinations of amino acids at A, C, A′ and C′ within the calcium-binding loop of each CR, CR pairs or triplets were selected to test their binding to RAP d3 (FIG. 2). An additional pair derived from the FDC-8D6 protein was tested, designated 8D6 CR12, having the sequence ([…]) (SEQ ID NO: 91). […]
# rhLRP1 cluster II = molecular target: T1, rhLRP1 cluster II; experiment: Solid phase binding assay of RAP peptides; conditions: for Kd: calcium-dependent binding, EDTA-subtracted, read-out: Kd / binding affinity
# Method: Solid phase binding assays were carried out as follows. Recombinant murine VLDLR ectodomain (aa 1-798, C-terminal hexahistidine, 1 μg) or rhLRP1 cluster II (aa 786-1165, C-terminal Fc, 1 μg) were bound to Nunc Maxisorp™ 96-well plates in TBS pH 8 supplemented with 5 mM CaCl2 (TBSC) overnight at 4° C. Wells were washed with TBSC and then blocked with TBSC containing 2% BSA. Peptides were then incubated with the immobilized receptor at a range of concentrations for 2 hours in the above blocking buffer supplemented with 0.05% Tween-20 at room temperature. Identical binding reactions were done in the presence of 50 mM EDTA to provide a measure of non-specific binding. Control wells contained no added peptide. Additional controls established absence of cross-reactivity between antibodies and receptors. Wells were washed with TBSTC and bound peptides detected with streptavidin-HRP (Pierce) or polyclonal anti-RAP (1:1,000, Raptor Pharmaceutical). Binding of the anti-RAP polyclonal antibody to test peptides was qualitatively confirmed by Western blotting (data not shown). Excess streptavidin-HRP or primary antibody was removed and wells washed before incubation with the secondary antibody, when necessary, HRP-conjugated goat anti rabbit IgG (Bio-Rad). Color was developed using TMB reagents (BioRad). Absorption at 450 nm was measured with a microplate spectrophotometer (Molecular Devices). Absorption obtained in the presence of EDTA was subtracted from absorption obtained in the presence of calcium prior to analysis. Data were plotted and Kd values derived by non-linear regression with the assumption of single-site binding (GraphPad Prism).
# The binding affinity of the peptides for LRP1 and VLDLR, another receptor in the LDLR family, was measured as follows. NS0-expressed and purified hrLRP1 or mVLDLR (R&D Systems) were use to coat wells in 96-well plates. Various dilutions of the test peptides were incubated with the immobilized receptors in the presence and absence of 50 mM EDTA in triplicate. Bound peptides were detected with streptavidin-HRP after extensive washing. Binding values measured in the presence of EDTA were subtracted from values measured in the absence of EDTA in order to determine calcium-dependent binding levels. Corrected values were plotted and fitted by non-linear regression with the assumption of a single-binding site using GraphPad Prism.
# T2 sequence (P98164 1022-1105 limits assumed): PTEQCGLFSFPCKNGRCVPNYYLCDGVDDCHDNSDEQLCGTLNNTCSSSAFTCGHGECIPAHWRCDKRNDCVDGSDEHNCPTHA
Molecule,binding to LRP2 CR89 (in words) (LRP2 CR89),binding to LRP1 CR3-5 (in words) (LRP1 CR3-5),affinity (in words) (rhLRP1 cluster II),Kd (rhLRP1 cluster II)
MegaRAP1 d3 T213S: MegaRAP1 d3 revertant T213S (protein) LDRLRRVSHQGYSTEAKFEEPRVIDLWDLAQSANLTDKELEAFREELKYFKAKIEAHNHYQKQLEIAHEELRHAESVGDGERVSRSREKHALLEGRTKELGYTVKKHLQDLSGRISRAR,slightly improved affinities,unable to detectably bind,,
MegaRAP1 d3 K217E: MegaRAP1 d3 revertant K217E (protein) LDRLRRVSHQGYTTEAEFEEPRVIDLWDLAQSANLTDKELEAFREELKYFKAKIEAHNHYQKQLEIAHEELRHAESVGDGERVSRSREKHALLEGRTKELGYTVKKHLQDLSGRISRAR,slightly improved affinities,unable to detectably bind,,
MegaRAP1 d3 A256K: MegaRAP1 d3 revertant A256K (protein) LDRLRRVSHQGYTTEAKFEEPRVIDLWDLAQSANLTDKELEAFREELKYFKAKIEKHNHYQKQLEIAHEELRHAESVGDGERVSRSREKHALLEGRTKELGYTVKKHLQDLSGRISRAR,failed to bind,failed to bind,,
MegaRAP1 d3 Y249H: MegaRAP1 d3 revertant Y249H (protein) LDRLRRVSHQGYTTEAKFEEPRVIDLWDLAQSANLTDKELEAFREELKHFKAKIEAHNHYQKQLEIAHEELRHAESVGDGERVSRSREKHALLEGRTKELGYTVKKHLQDLSGRISRAR,failed to bind,failed to bind,,
RAP d3 K270E: RAP d3 forward mutant K270E (protein) LDRLRRVSHQGYSTEAEFEEPRVIDLWDLAQSANLTDKELEAFREELKHFEAKIEKHNHYQKQLEIAHEELRHAESVGDGERVSRSREKHALLEGRTKELGYTVKKHLQDLSGRISRAR,,failed to measurably bind,,
MegaRAP1 d3 K251E: MegaRAP1 d3 revertant K251E (protein) LDRLRRVSHQGYTTEAKFEEPRVIDLWDLAQSANLTDKELEAFREELKYFEAKIEAHNHYQKQLEIAHEELRHAESVGDGERVSRSREKHALLEGRTKELGYTVKKHLQDLSGRISRAR,failed to bind,failed to bind,,
"mRAP: linearized control of mRAPc, both cysteines substituted with serines (SEQ ID NO: 107) (peptide) SGFREELKHFEAKIEKHNHYQKQLEIAHEKLRHAESVGDGERVSRSREKHALLEGRTKELGYTVKKHLQDLSGGS",,,no measurable affinity,
"Heptide: cyclic RAP peptide, amino acids 246 to 313, E246C, L247G, G280A, L311A, S312C (SEQ ID NO: 103) (protein, chains of the parent or of the whole protein) CGKHFEAKIEKHNHYQKQLEIAHEKLRHAESVGDAERVSRSREKHALLEGRTKELGYTVKKHLQDACG",,,,~3.5 nM
"mRAp-8c: cyclic RAP peptide, amino acids 246 to 312, E246C, L247G, L311G, S312C (SEQ ID NO: 100) (protein, chains of the parent or of the whole protein) CGKHFEAKIEKHNHYQKQLEIAHEKLRHAESVGDGERVSRSREKHALLEGRTKELGYTVKKHLQDGC",,,,4 to 6 nM
"mRAPcko: mRAPc with the mutations K256A and K270E (N-terminal biotin; intramolecular disulfide bond between C241 and C315 (otherwise identical to mRAPc), mRAPc with the mutations K256A and K270E) peptide: GGSGGCGFREELKHFEAKIEAHNHYQKQLEIAHEELRHAESVGDGERVSRSREKHALLEGRTKELGYTVKKHLQDLSGGC",,,no measurable affinity,
